The test system of this series is CC(=O)C=O. Nature of the series: purified protein.

Km data for one substance are collected here from article PMC9426524.

Usually Km stands for the concentration of substrate that gives half-maximal velocity. As for E. coli YajL (Escherichia coli K-12), the Km is 95 ± 18 µM.
